Common to all, as to test: cell-based or functional assay
The target of assay [1] is all targets (endogenous loci tagged homozygously with miniIAA7-mEGFP N- or C-terminally).
In assay [2] the target is seipin tagged with miniIAA7-mEGFP (miniIAA7 = AtIAA7 amino acids 37-104) (human; Arabidopsis thaliana) (UniProt Q96G97).
In assay [3] the target is seipin tagged with miniAID-mEGFP (miniAID = AtIAA17 amino acid residues 68-132) (human; Arabidopsis thaliana) (UniProt Q96G97).
The target of assay [4] is NMIIa (MYH9) tagged N-terminally with miniIAA7-mEGFP (Arabidopsis thaliana; human) (UniProt P35579).
Assay [5] addresses Non-nuclear targets expressed at low levels (seipin, NPC1, PEX3 and Glut1), tagged with miniIAA7-mEGFP.
The target in assay [6] is LBR tagged C-terminally with miniIAA7-mEGFP (human; Arabidopsis thaliana) (UniProt Q14739).

This is an account of results in US20220041665A1, “POLYNUCLEOTIDE AND USES THEREOF” (Helsingin yliopisto, priority 2019, published 2022).

B1: TIR1 derived from Oryza sativa (OsTIR1) (receptor, UniProt Q7XVM8 1-575, looked up)
chain: MTYFPEEVVEHIFSFLPAQRDRNTVSLVCKVWYEIERLSRRGVFVGNCYAVRAGRVAARFPNVRALTVKGKPHFADFNLVPPDWGGYAGPWIEAAARGCHGLEELRMKRMVVSDESLELLARSFPRFRALVLISCEGFSTDGLAAVASHCKLLRELDLQENEVEDRGPRWLSCFPDSCTSLVSLNFACIKGEVNAGSLERLVSRSPNLRSLRLNRSVSVDTLAKILLRTPNLEDLGTGNLTDDFQTESYFKLTSALEKCKMLRSLSGFWDASPVCLSFIYPLCAQLTGLNLSYAPTLDASDLTKMISRCVKLQRLWVLDCISDKGLQVVASSCKDLQELRVFPSDFYVAGYSAVTEEGLVAVSLGCPKLNSLLYFCHQMTNAALVTVAKNCPNFTRFRLCILEPGKPDVVTSQPLDEGFGAIVRECKGLQRLSISGLLTDKVFMYIGKYAKQLEMLSIAFAGDSDKGMMHVMNGCKNLRKLEIRDSPFGDAALLGNFARYETMRSLWMSSCNVTLKGCQVLASKMPMLNVEVINERDGSNEMEENHGDLPKVEKLYVYRTTAGARDDAPNFVKIL
In assay [1], B1 returned a basal degradation at 0 h IAA, FACS of GFP of 12 to 37% and a depletion efficiency at 16 h IAA, FACS of GFP of 2 to 7%.

B2: Arabidopsis thaliana AFB2 (AtAFB2), auxin perceptive F-box protein, tagged with mCherry (receptor, not shown: large carriers)
chain: MNYFPDEVIEHVFDFVTSHKDRNAISLVCKSWYKIERYSRQKVFIGNCYAINPERLLRRFPCLKSLTLKGKPHFADFNLVPHEWGGFVLPWIEALARSRVGLEELRLKRMVVTDESLELLSRSFVNFKSLVLVSCEGFTTDGLASIAANCRHLRDLDLQENEIDDHRGQWLSCFPDTCTTLVTLNFACLEGETNLVALERLVARSPNLKSLKLNRAVPLDALARLMACAPQIVDLGVGSYENDPDSESYLKLMAVIKKCTSLRSLSGFLEAAPHCLSAFHPICHNLTSLNLSYAAEIHGSHLIKLIQHCKKLQRLWILDSIGDKGLEVVASTCKELQELRVFPSDLLGGGNTAVTEEGLVAISAGCPKLHSILYFCQQMTNAALVTVAKNCPNFIRFRLCILEPNKPDHVTSQPLDEGFGAIVKACKSLRRLSLSGLLTDQVFLYIGMYANQLEMLSIAFAGDTDKGMLYVLNGCKKMKKLEIRDSPFGDTALLADVSKYETMRSLWMSSCEVTLSGCKRLAEKAPWLNVEIINENDNNRMEENGHEGRQKVDKLYLYRTVVGTRMDAPPFVWILGGSGG
In turn, B2 showed an auxin-inducible protein reduction at 1 h IAA, FACS of GFP, compared to miniAID in assay [2] of 3 fold. The molecule also displayed a target protein level before IAA addition (0 h IAA), FACS of GFP, compared to OsTIR1 in assay [3] of 5 fold. Moreover, the target protein level at 1 h IAA, FACS of GFP is < 12% in assay [4], 2 to 5% in assay [5] and < 12% in assay [6]. The molecule also displayed a target protein level at 0 h IAA (basal degradation), FACS of GFP (% levels of control) in assay [1] of 86 to 109. Besides, in assay [1], the target protein level at 16 h IAA, FACS of GFP was 2 to 5 % levels.
